Assay results from PMC10960832.

Key:
[1] = molecular target: C-terminal avi tagged 53BP1 Tudor domain, biotinylated (human) (UniProt Q12888); test: AlphaScreen or HTRF; TR-FRET competition: 0.5 uM His-tagged i53, 0.5 uM C-terminal avi tagged 53BP1, 5 nM europium anti-His antibody, 0.5x streptavidin-XL665, i53 variant 5000-4.8 nM; 50 mM Tris pH 7.5, 150 mM NaCl, 0.02% Tween-20, 0.05% BSA; 2 h at room temperature; non-linear 4 parameter curve …
[2] = molecular target: 53BP1 Tudor domain (53BP1 residues 1484–1603) (human) (UniProt Q12888)

Row | Substance | EC50 [1] | potency in increasing HDR / decreasing NHEJ at HBB in HSPCs (dose response of purified protein in the electroporation mix, HBB-SNP AAV6), relative to parental i53 [2]
1 | i53 (WT) (designed binder) | 1080 nM | 
2 | i53 variant L67H.H68Y (designed binder) | 501 nM | 
3 | i53 variant T12V.T14H.L67H (designed binder) | 338 nM | 3 fold
4 | i53 variant T12Y.T14E.L67R (designed binder) | 179 nM | 

The next lines start with the values.

Row | EC50 [1] | potency in increasing HDR / decreasing NHEJ at HBB in HSPCs (dose response of purified protein in the electroporation mix, HBB-SNP AAV6), relative to parental i53 [2] | Substance
5 | 465 nM |  | i53 variant L67H (designed binder)
6 | 458 nM | 3 fold | i53 variant L67R (designed binder)
